{"source": "patent US20120207760A1", "binders": {"B1": {"name": "TCN-533 (5256_A17) (antibody, V domains shown)", "VH": "QVQLVQSGADVKKPGSSVTVSCKASGGSFSNYGINWVRQAPGQGLEWMGGIIPLINAPNYAPKFQGRVTITADMFSNIVSLQLTSLRTDDTAVYYCARRKMTTAIDYWGQGTLVTVSS", "VL": "QPVLSQPPSASASLGASVTLTCTLSSGFDNYQVAWYQQRPGKGPRFVMRVGNGGNVASKGDGIPDRFSVSGSGLNRYLTIKNIQEDDESDYYCGADHGSGNNFVSPYVFGGGTKLTVL"}, "B2": {"name": "TCN-551 (5243_D01) (antibody, V domains shown)", "VH": "EVQLVQSGSEVKKPGESLKISCKGSGYSFSNYWIGWVRHMPGKGLEWMGIIYPGDSDTRYSPSFQGQVTMSADKSSSTVYLQWSSLKASDTAIYYCARRGGHSFGYGSGGDTHSEFDSWGQGTLVTVSS", "VL": "QSVLTQSPSVSAAPGQKVTISCSGSDSNIGDYFVCWYQHLPGKPPQLLIYENNKRPSGIPDRFSGSKSGTSATLGITGIQTGDEADYYCATWDGSLSAWVFGGGTKLTVL"}, "B3": {"name": "TCN-538 (3206_O17) (antibody, V domains shown)", "VH": "QITLKESGPTLVKPTQTLTLTCVFSGFSLSITGVRVGWIRQPPGKALEWLALISWDDEKHYSPSLQSRLTITKDTSKNQVVLTMTNLDPVDTATYYCARSTDRGHVLRYFGWMLPGDAFDVWGQGTMVTVSS", "VL": "DIVMTQSPDFLPVSLGERATINCKSSQRVLYSSNNKNYLAWYQLKPGQPPKLIIYWASTRESGVPDRFSGSGSGTEFTLTISSLQAEDVAVYYCQQYYSRPYTFGQGTKLEIK"}}, "settings_in_all_cases": "remark: other sources report otherwise", "key": {"[1]": {"molecular_target": "recombinant soluble homotrimeric HA of A/Hong Kong/2108/03 (H9N2) (Influenza A virus A/Hong Kong/2108/03 (H9N2))", "assay": "microarray, BCC supernatant IgG, trimeric HA"}, "[2]": {"molecular_target": "recombinant soluble homotrimeric HA of A/Solomon Islands/3/06 (H1N1) (Influenza A virus A/Solomon Islands/3/06 (H1N1))", "assay": "microarray, BCC supernatant IgG, trimeric HA"}, "[3]": {"molecular_target": "recombinant soluble homotrimeric HA of A/swine/Ontario/01911-2/99 (H4N6) (Influenza A virus A/swine/Ontario/01911-2/99 (H4N6))", "assay": "microarray, BCC supernatant IgG, trimeric HA"}, "[4]": {"molecular_target": "recombinant soluble homotrimeric HA of A/Indonesia/5/05 (H5N1) (Influenza A virus A/Indonesia/5/05 (H5N1))", "assay": "microarray, BCC supernatant IgG, trimeric HA"}, "[5]": {"molecular_target": "recombinant soluble homotrimeric HA of A/Japan/305/57 (H2N2) (Influenza A virus A/Japan/305/57 (H2N2))", "assay": "microarray, BCC supernatant IgG, trimeric HA"}, "[6]": {"molecular_target": "recombinant soluble homotrimeric HA of A/duck/Yangzhou/02/05 (H8N4) (Influenza A virus A/duck/Yangzhou/02/2005 (H8N4))", "assay": "microarray, BCC supernatant IgG, trimeric HA"}, "[7]": {"molecular_target": "recombinant soluble homotrimeric HA of A/northern shoveler/California/HKWF115/07 (Influenza A virus A/northern shoveler/California/HKWF115/2007)", "assay": "microarray, BCC supernatant IgG, trimeric HA"}, "[8]": {"molecular_target": "recombinant soluble homotrimeric HA of A/chicken/Vietnam/NCVD-016/08 (H5N1) (Influenza A virus A/chicken/Vietnam/NCVD-016/08 (H5N1))", "assay": "microarray, BCC supernatant IgG, trimeric HA"}, "[9]": {"molecular_target": "recombinant soluble homotrimeric HA of A/Anhui/1/05 (H5N1) (Influenza A virus A/Anhui/1/05 (H5N1))", "assay": "microarray, BCC supernatant IgG, trimeric HA"}, "[10]": {"molecular_target": "recombinant soluble homotrimeric HA of A/Wisconsin/67/05 (H3N2) (Influenza A virus A/Wisconsin/67/05 (H3N2))", "assay": "microarray, BCC supernatant IgG, trimeric HA"}, "[11]": {"molecular_target": "recombinant soluble homotrimeric HA of A/Egypt/3300-NAMRU3/08 (H5N1) (Influenza A virus A/Egypt/3300-NAMRU3/08 (H5N1))", "assay": "microarray, BCC supernatant IgG, trimeric HA"}, "[12]": {"molecular_target": "recombinant soluble homotrimeric HA of A/California/4/09 (H1N1) (Influenza A virus A/California/4/09 (H1N1))", "assay": "microarray, BCC supernatant IgG, trimeric HA"}, "[13]": {"molecular_target": "recombinant soluble homotrimeric HA of A/Vietnam/1203/04 (H5N1) (Influenza A virus A/Vietnam/1203/04 (H5N1))", "assay": "microarray, BCC supernatant IgG, trimeric HA"}, "[14]": {"molecular_target": "recombinant homotrimeric HA, A/Hong Kong/1073/99 H9N2 (Influenza A virus A/Hong Kong/1073/99 (H9N2))", "assay": "trimeric HA microarray, transfection set 3"}, "[15]": {"molecular_target": "recombinant homotrimeric HA, A/duck/Yangzhou/02/05 H8N4 (Influenza A virus A/duck/Yangzhou/02/2005 (H8N4))", "assay": "trimeric HA microarray, transfection set 3"}, "[16]": {"molecular_target": "recombinant homotrimeric HA, A/Egypt/3300-NAMRU3/08 H5N1 (Influenza A virus A/Egypt/3300-NAMRU3/08 (H5N1))", "assay": "trimeric HA microarray, transfection set 3"}, "[17]": {"molecular_target": "recombinant homotrimeric HA, A/Hong Kong/2108/03 H9N2 (Influenza A virus A/Hong Kong/2108/03 (H9N2))", "assay": "trimeric HA microarray, transfection set 3"}, "[18]": {"molecular_target": "T1, recombinant homotrimeric HA, A/Wisconsin/67/05 H3N2 (Influenza A virus A/Wisconsin/67/05 (H3N2))", "assay": "trimeric HA microarray, transfection set 3"}, "[19]": {"molecular_target": "T2, recombinant homotrimeric HA, A/South Carolina/1/18 H1N1 (Influenza A virus A/South Carolina/1/18 (H1N1))", "assay": "trimeric HA microarray, transfection set 3"}, "[20]": {"molecular_target": "T3, recombinant homotrimeric HA, A/Solomon Islands/3/06 H1N1 (Influenza A virus A/Solomon Islands/3/06 (H1N1))", "assay": "trimeric HA microarray, transfection set 3"}, "[21]": {"molecular_target": "T4, recombinant homotrimeric HA, A/Japan/305/57 H2N2 (Influenza A virus A/Japan/305/57 (H2N2))", "assay": "trimeric HA microarray, transfection set 3"}, "[22]": {"molecular_target": "recombinant homotrimeric HA, A/chicken/Vietnam/NCVD-016/08 H5N1 (Influenza A virus A/chicken/Vietnam/NCVD-016/08 (H5N1))", "assay": "trimeric HA microarray, transfection set 3"}, "[23]": {"molecular_target": "T5, recombinant homotrimeric HA, A/California/4/09 H1N1 (Influenza A virus A/California/4/09 (H1N1))", "assay": "trimeric HA microarray, transfection set 3"}, "[24]": {"molecular_target": "recombinant homotrimeric HA, A/northern shoveler/California/HKWF115/07 (Influenza A virus A/northern shoveler/California/HKWF115/2007 (H6N1))", "assay": "trimeric HA microarray, transfection set 3"}, "[25]": {"molecular_target": "T6, recombinant homotrimeric HA, A/Vietnam/1203/04 H5N1 (Influenza A virus A/Vietnam/1203/04 (H5N1))", "assay": "trimeric HA microarray, transfection set 3"}, "[26]": {"molecular_target": "recombinant homotrimeric HA, A/common magpie/Hong Kong/5052/07 H5N1 (Influenza A virus A/common magpie/Hong Kong/5052/07 (H5N1))", "assay": "trimeric HA microarray, transfection set 3"}, "[27]": {"molecular_target": "recombinant homotrimeric HA, A/swine/Ontario/01911-2/99 H4N6 (Influenza A virus A/swine/Ontario/01911-2/99 (H4N6))", "assay": "trimeric HA microarray, transfection set 3"}, "[28]": {"molecular_target": "T7, recombinant homotrimeric HA, A/Indonesia/5/05 H5N1 (Influenza A virus A/Indonesia/5/05 (H5N1))", "assay": "trimeric HA microarray, transfection set 3"}, "[29]": {"molecular_target": "T1, recombinant homotrimeric HA, …", "assay": "trimeric HA microarray, transfection set 5"}, "[30]": {"molecular_target": "T2, recombinant homotrimeric HA, A/South …", "assay": "trimeric HA microarray, transfection set 5"}, "[31]": {"molecular_target": "T3, recombinant homotrimeric HA, A/Solomon …", "assay": "trimeric HA microarray, transfection set 5"}, "[32]": {"molecular_target": "T4, recombinant homotrimeric HA, …", "assay": "trimeric HA microarray, transfection set 5"}, "[33]": {"molecular_target": "T5, recombinant homotrimeric HA, …", "assay": "trimeric HA microarray, transfection set 5"}, "[34]": {"molecular_target": "T6, recombinant homotrimeric HA, …", "assay": "trimeric HA microarray, transfection set 5"}, "[35]": {"molecular_target": "hemagglutinin (HA) of influenza A/Japan/305/57 H2N2 (Influenza A virus A/Japan/305/1957 (H2N2)), P03451", "assay": "ELISA, inactivated whole virions coated; transfection supernatant set 5"}, "[36]": {"molecular_target": "T7, recombinant homotrimeric HA, …", "assay": "trimeric HA microarray, transfection set 5"}, "[37]": {"molecular_target": "recombinant soluble homotrimeric HA of A/Netherlands/219/03 (H7N7) (Influenza A virus A/Netherlands/219/03 (H7N7))", "assay": "microarray, BCC supernatant IgG, trimeric HA"}}, "data": [{"binder": "B1", "values": [{"measurement": "Trimeric HA Binding: RLU", "setting": "[1]", "value": 172, "unit": "RLU"}, {"measurement": "Trimeric HA Binding: RLU", "setting": "[2]", "value": 39200, "unit": "RLU"}, {"measurement": "Trimeric HA Binding: RLU", "setting": "[3]", "value": 1580, "unit": "RLU"}, {"measurement": "Trimeric HA Binding: RLU", "setting": "[4]", "value": 44100, "unit": "RLU"}, {"measurement": "Trimeric HA Binding: RLU", "setting": "[5]", "value": 10800, "unit": "RLU"}, {"measurement": "Trimeric HA Binding: RLU", "setting": "[6]", "value": 24700, "unit": "RLU"}, {"measurement": "Trimeric HA Binding: RLU", "setting": "[7]", "value": 41400, "unit": "RLU"}, {"measurement": "Trimeric HA Binding: RLU", "setting": "[8]", "value": 47700, "unit": "RLU"}, {"measurement": "Trimeric HA Binding: RLU", "setting": "[9]", "value": 8060, "unit": "RLU"}, {"measurement": "Trimeric HA Binding: RLU", "setting": "[10]", "value": 13800, "unit": "RLU"}, {"measurement": "Trimeric HA Binding: RLU", "setting": "[11]", "value": 34300, "unit": "RLU"}, {"measurement": "Trimeric HA Binding: RLU", "setting": "[12]", "value": 29300, "unit": "RLU"}, {"measurement": "Trimeric HA Binding: RLU", "setting": "[13]", "value": 5680, "unit": "RLU"}, {"measurement": "Trimeric HA Binding RLU", "setting": "[14]", "value": 23800, "unit": "RLU"}, {"measurement": "Trimeric HA Binding RLU", "setting": "[15]", "value": 711, "unit": "RLU"}, {"measurement": "Trimeric HA Binding RLU", "setting": "[16]", "value": 18600, "unit": "RLU"}, {"measurement": "Trimeric HA Binding RLU", "setting": "[17]", "value": 33, "unit": "RLU"}, {"measurement": "Trimeric HA Binding RLU", "setting": "[18]", "value": 16100, "unit": "RLU"}, {"measurement": "Trimeric HA Binding RLU", "setting": "[19]", "value": 16400, "unit": "RLU"}, {"measurement": "Trimeric HA Binding RLU", "setting": "[20]", "value": 15500, "unit": "RLU"}, {"measurement": "Trimeric HA Binding RLU", "setting": "[21]", "value": 18600, "unit": "RLU"}, {"measurement": "Trimeric HA Binding RLU", "setting": "[22]", "value": 24600, "unit": "RLU"}, {"measurement": "Trimeric HA Binding RLU", "setting": "[23]", "value": 6880, "unit": "RLU"}, {"measurement": "Trimeric HA Binding RLU", "setting": "[24]", "value": 7810, "unit": "RLU"}, {"measurement": "Trimeric HA Binding RLU", "setting": "[25]", "value": 11700, "unit": "RLU"}, {"measurement": "Trimeric HA Binding RLU", "setting": "[26]", "value": 25200, "unit": "RLU"}, {"measurement": "Trimeric HA Binding RLU", "setting": "[27]", "value": 180, "unit": "RLU"}, {"measurement": "Trimeric HA Binding RLU", "setting": "[28]", "value": 28300, "unit": "RLU"}]}, {"binder": "B2", "values": [{"measurement": "Trimeric HA Binding RLU", "setting": "[29]", "value": 936, "unit": "RLU"}, {"measurement": "Trimeric HA Binding RLU", "setting": "[30]", "value": 4340, "unit": "RLU"}, {"measurement": "Trimeric HA Binding RLU", "setting": "[31]", "value": 43500, "unit": "RLU"}, {"measurement": "Trimeric HA Binding RLU", "setting": "[32]", "value": 25200, "unit": "RLU"}, {"measurement": "Trimeric HA Binding RLU", "setting": "[33]", "value": 46100, "unit": "RLU"}, {"measurement": "Trimeric HA Binding RLU", "setting": "[34]", "value": 41900, "unit": "RLU"}, {"measurement": "OD450", "setting": "[35]", "value": 0.1, "unit": "OD450"}, {"measurement": "Trimeric HA Binding: RLU", "setting": "[7]", "value": 52500, "unit": "RLU"}, {"measurement": "Trimeric HA Binding: RLU", "setting": "[8]", "value": 42300, "unit": "RLU"}]}, {"binder": "B3", "values": [{"measurement": "Trimeric HA Binding RLU", "setting": "[29]", "value": 2070, "unit": "RLU"}, {"measurement": "Trimeric HA Binding RLU", "setting": "[30]", "value": 8430, "unit": "RLU"}, {"measurement": "Trimeric HA Binding RLU", "setting": "[31]", "value": 1960, "unit": "RLU"}, {"measurement": "Trimeric HA Binding RLU", "setting": "[32]", "value": 6620, "unit": "RLU"}, {"measurement": "Trimeric HA Binding RLU", "setting": "[33]", "value": 16000, "unit": "RLU"}, {"measurement": "Trimeric HA Binding RLU", "setting": "[36]", "value": 13700, "unit": "RLU"}, {"measurement": "Trimeric HA Binding: RLU", "setting": "[37]", "value": 6530, "unit": "RLU"}]}]}
